Reference: the supplement of paper PMC10126150
± gives the standard deviation of the averaged measurements.

Tested on: ATP
Assay: switch fluorescence ratio, 500 uM ATP over buffer (Cy3 cluster intensity, sum of 5 cycles each) (fold (ratio)); higher = stronger signal-on switching upon ATP binding; sequences stand for … in TCGTCGGCAGCGTCAGATGTGTATAAGAGACAGTTTTTTTTTTTTTTTTTTTTTTTTT…TC
Settings: aptamer strand: ATP DNA aptamer (quencher-CACCTGGGGGAGTATTGCGGAGGAAGG + anchor), 100 nM annealed; ATP concentration: 500 uM
Method in brief: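 Cy3-labelled switching-strand clusters on a modified Illumina MiSeq flow-cell were annealed to 100 nM quencher-labelled ATP aptamer, imaged in selection buffer, then imaged after 15 min with 500 uM ATP at 22 °C. Five buffer/ATP cycles ran, with NaOH stripping and re-annealing between them. The fluorescence ratio is summed target-cycle over summed buffer-cycle Cy3 intensity per cluster, averaged per switch-domain sequence. Clusters outside 100-1000 RFU were excluded.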
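Note: ATP exposure 15 min at 22 °C before imaging.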

Sequence | switch fluorescence ratio
ACGTTTGAGT | 0.99 ± 0.016
TTTGTGAGGT | 1.01 ± 0.034
AGAGACACAT | 1 ± 0.0086
AGGGTTCGAC | 1.01 ± 0.039
TTTTGATCTA | 0.97 ± 0.019
TTAATCCCCC | 1.04 ± 0.042
GTAGGTTACT | 1.01 ± 0.019
TGTGATTTTG | 0.998 ± 0.028
CCAGATTTTA | 0.992 ± 0.015
TGGGTTGAGG | 0.997 ± 0.016
CGCGTGGGCC | 1.03 ± 0.026
TGCTATATTA | 0.99152 ± 0.00065
ATGCAGCGGG | 1.01 ± 0.028
GAACTTGGTT | 1 ± 0.062
ACAAAAGACT | 1.19 ± 0.25
TTGCTATACG | 1.2 ± 0.13
TTTTTTGTAC | 1.06 ± 0.037
CGGGGTCGTG | 0.9904 ± 0.0035
GTCATTGATT | 1.01 ± 0.011
GACGGGGTAG | 1 ± 0.048
CATTAAGGAG | 1.06 ± 0.092
GCTGTAGGCC | 1.02 ± 0.014
ATAGGTCAAC | 0.992 ± 0.044
ACATTGGTAT | 1 ± 0.011
AGTGTGCGTG | 0.9812 ± 0.0076

Sequence | switch fluorescence ratio
AAGGGGGATC | 1 ± 0.032
ACCAGGCTTG | 1.02 ± 0.016
CATGGAAGGG | 0.9699 ± 0.0068
GACGGGCGGA | 1.019 ± 0.0024
GAATATGTAG | 0.965 ± 0.044
ACATATATGG | 0.9752 ± 0.0051
AGCGGTTTCG | 0.986 ± 0.023
GGGGCAGACT | 1.03 ± 0.018
TAATTAATTT | 1.02 ± 0.025
TACTTTTGAA | 0.977 ± 0.022
TGTCGGAAAG | 0.985 ± 0.026
ATAGTTGCGG | 1.047 ± 0.0011
CGTGAAAGG | 0.9546 ± 0.0042
AGAGTTGGTG | 0.997 ± 0.031
TTAATACTGT | 1.03 ± 0.016
GTGGAACGTA | 0.976 ± 0.015
GGTCTGTTTG | 0.97 ± 0.025
GATATTTTAA | 0.992 ± 0.037
ATATTCAGTA | 1 ± 0.015
TTGTGGTACG | 0.981 ± 0.041
GGTAGAGGTA | 1.02 ± 0.013
TTCTAGTTAC | 1.047 ± 0.0056
GCTGTCATGA | 0.9853 ± 0.0074
TGAAGGGGAG | 1.01 ± 0.069
AATTTTTATT | 1.039 ± 0.0073

Sequence | switch fluorescence ratio
GGCGTAGTGC | 1.02 ± 0.016
GAGTCAGTGG | 0.984 ± 0.012
TGGGTTACGG | 0.983 ± 0.036
AAGCTGGTAC | 1.99 ± 0.1
AGCGGGGCGT | 1.01 ± 0.014
ATACTATATT | 1.05 ± 0.017
AGCAAAAGGA | 1.16 ± 0.22
CATGTATGT | 1.07 ± 0.03
TTTGACAAGC | 1.15 ± 0.18
GAGGTCGTAA | 1.05 ± 0.051
GATATTGTTA | 1 ± 0.029
ATCTATCTGT | 1 ± 0.027
GAGATGAAAC | 0.976 ± 0.011
TGTAATGGGT | 1 ± 0.029
GTTTGTTACT | 0.964 ± 0.052
GAAATCGTTT | 0.9949 ± 0.0082
AGCCATAGTC | 1.113 ± 0.0056
ACTCAATGCA | 1.06 ± 0.045
TATATTTCTA | 0.999 ± 0.035
GCTTGTGACG | 1.02 ± 0.058
GATCGGGGAC | 1.03 ± 0.027
TAAGGGTGCC | 1.01 ± 0.03
TCTGCTTGAG | 1.03 ± 0.022
GGGGGAGTAA | 1.05 ± 0.15
GATGCTATTT | 1.004 ± 0.0087

Sequence | switch fluorescence ratio
GGTGAGTTGG | 0.977 ± 0.014
TTGACCTTTG | 1.01 ± 0.011
TACCAGAGCA | 1.08 ± 0.022
TGCCAATATC | 1.7 ± 0.08
ACGAAGGTCG | 1.03 ± 0.059
GTTATAAGTC | 1.01 ± 0.026
GAATCGGGGG | 0.979 ± 0.044
TGGGCAGATG | 0.989 ± 0.016
AATGTCTGTA | 1.01 ± 0.044
AAATGGATAG | 1.007 ± 0.0029
ATATTGATTA | 1.02 ± 0.032
CCGGCGGGGC | 1 ± 0.013
GGTAGAGGGA | 0.9783 ± 0.0085
CGGCCGGACT | 1.01 ± 0.047
TTAATAGTGG | 1.03 ± 0.073
TTTCACGGGA | 1.07 ± 0.066
TCTGGGTGGT | 0.977 ± 0.042
TCGGAAAATA | 1.01 ± 0.026
GAAGTCGTGC | 0.999 ± 0.023
AAATGGAGAC | 1.01 ± 0.034
TTAGTTGAGG | 0.987 ± 0.05
AGAAAATTGT | 1.01 ± 0.025
GGGACTTAAC | 1.03 ± 0.014
TTTCGAATAT | 0.9836 ± 0.0061
CGGCGGGGAA | 0.9757 ± 0.00091
